Here are results for one molecule from PMC11050682, “https://orcid.org/0009-0003-0282-9605 Pérez-Mora Salvador Conceptualization Methodology Software Validation Formal analysis Investigation Data curation Writing – original draft Writing – review & edit”.

The data set addresses T1, drEhHSTF5 (dimeric rEhHSTF5, fraction 10) (Entamoeba histolytica, UniProt C4M5X4 1-329).
T1 sequence: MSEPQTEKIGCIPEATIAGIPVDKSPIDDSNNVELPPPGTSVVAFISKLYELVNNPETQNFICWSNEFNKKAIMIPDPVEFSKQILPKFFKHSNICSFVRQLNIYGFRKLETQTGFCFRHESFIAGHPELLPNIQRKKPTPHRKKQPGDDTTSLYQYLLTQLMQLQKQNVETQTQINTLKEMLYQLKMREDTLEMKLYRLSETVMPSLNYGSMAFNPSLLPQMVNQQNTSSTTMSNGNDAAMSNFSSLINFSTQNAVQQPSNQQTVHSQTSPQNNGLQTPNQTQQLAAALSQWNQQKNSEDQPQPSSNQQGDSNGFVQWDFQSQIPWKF
Kind of data set: competition; 150x molar excess; complex reduced. The following applies: protein: recombinant; tags: N-terminal His6 (pET-28a); chain copies: 2; blunt.

B1: HSE_EhPgp5 unlabelled (specific competitor) (dsDNA)
DNA 1: ATAGAAATTTTTCATA
DNA 2: TATGAAAAATTTCTAT
Regarding B1, the binding result is listed as “binds”.
